According to paper PMC4682080:

Assays:
[1] = target: GAPDH (UniProt P04406); settings: cited from earlier work
[2] = target: Glyceraldehyde-3-phosphate dehydrogenase (rabbit muscle GAPDH) (rabbit) (UniProt P46406)
Sequence of UniProt P46406 (P46406 whole entry): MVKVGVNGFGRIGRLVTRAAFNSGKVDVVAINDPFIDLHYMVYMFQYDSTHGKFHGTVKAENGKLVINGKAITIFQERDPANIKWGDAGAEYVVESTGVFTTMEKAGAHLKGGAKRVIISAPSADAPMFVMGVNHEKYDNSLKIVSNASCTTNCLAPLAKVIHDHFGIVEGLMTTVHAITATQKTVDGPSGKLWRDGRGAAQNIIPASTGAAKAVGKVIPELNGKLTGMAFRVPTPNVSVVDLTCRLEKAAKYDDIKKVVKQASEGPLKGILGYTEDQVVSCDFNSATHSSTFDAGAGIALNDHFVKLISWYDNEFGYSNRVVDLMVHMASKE

Sequence of UniProt P04406 (P04406 2-335): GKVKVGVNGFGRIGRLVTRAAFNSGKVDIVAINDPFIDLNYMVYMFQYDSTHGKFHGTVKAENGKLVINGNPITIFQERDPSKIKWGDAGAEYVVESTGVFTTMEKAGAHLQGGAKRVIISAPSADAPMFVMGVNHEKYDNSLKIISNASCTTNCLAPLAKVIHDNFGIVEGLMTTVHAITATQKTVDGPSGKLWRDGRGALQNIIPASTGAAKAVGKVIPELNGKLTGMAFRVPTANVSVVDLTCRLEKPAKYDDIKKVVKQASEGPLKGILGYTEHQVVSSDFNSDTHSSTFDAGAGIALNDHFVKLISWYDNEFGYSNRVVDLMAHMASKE
Sequence of Lactoferrin (P02788 20-710): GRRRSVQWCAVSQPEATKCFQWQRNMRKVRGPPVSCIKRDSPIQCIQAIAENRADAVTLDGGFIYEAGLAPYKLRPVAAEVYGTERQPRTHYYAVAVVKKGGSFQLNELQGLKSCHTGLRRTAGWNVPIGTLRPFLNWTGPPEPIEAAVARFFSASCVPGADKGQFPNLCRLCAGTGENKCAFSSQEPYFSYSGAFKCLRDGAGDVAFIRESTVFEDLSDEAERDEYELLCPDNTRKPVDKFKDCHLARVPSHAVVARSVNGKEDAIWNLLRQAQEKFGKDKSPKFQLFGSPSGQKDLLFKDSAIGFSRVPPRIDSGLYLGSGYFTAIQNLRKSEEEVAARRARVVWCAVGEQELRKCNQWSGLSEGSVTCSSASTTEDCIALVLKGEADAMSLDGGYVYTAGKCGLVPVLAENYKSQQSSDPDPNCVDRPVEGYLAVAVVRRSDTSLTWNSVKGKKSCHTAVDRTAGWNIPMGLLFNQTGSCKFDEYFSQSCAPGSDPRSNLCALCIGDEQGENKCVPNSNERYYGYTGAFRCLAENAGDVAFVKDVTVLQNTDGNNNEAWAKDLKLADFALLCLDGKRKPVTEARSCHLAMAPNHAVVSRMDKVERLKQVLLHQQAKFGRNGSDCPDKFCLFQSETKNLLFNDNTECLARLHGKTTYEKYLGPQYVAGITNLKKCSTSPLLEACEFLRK

Row | Substance | Kd [1] | Fold change in Lactoferrin MFI of cells internalizing both GAPDH and Lf vs. only lactoferrin +ve cells; CHO [2] | Fold change in Lactoferrin MFI of cells internalizing both GAPDH and Lf vs. only lactoferrin +ve cells; CHO-TRVb [2] | Fold change in Lactoferrin MFI of cells internalizing both GAPDH and Lf vs. only lactoferrin +ve cells; Human Lymphocytes [2] | Fold change in Lactoferrin MFI of cells internalizing both GAPDH and Lf vs. only lactoferrin +ve cells; J774 [2] | Fold change in Lactoferrin MFI of cells internalizing both GAPDH and Lf vs. only lactoferrin +ve cells; K562 [2] | Fold change in Lactoferrin MFI of cells internalizing both GAPDH and Lf vs. only lactoferrin +ve cells; Mouse Bone Marrow cells [2] | Fold change in Lactoferrin MFI of cells internalizing both GAPDH and Lf vs. only lactoferrin +ve cells; Mouse Enterocytes [2] | Fold change in Lactoferrin MFI of cells internalizing both GAPDH and Lf vs. only lactoferrin +ve cells; Mouse Hepatocytes [2] | Fold change in Lactoferrin MFI of cells internalizing both GAPDH and Lf vs. only lactoferrin +ve cells; Mouse Peritoneal Macrophages (Ex vivo) [2] | Fold change in Lactoferrin MFI of cells internalizing both GAPDH and Lf vs. only lactoferrin +ve cells; Mouse Spleen Macrophages [2] | Fold change in Lactoferrin MFI of cells internalizing both GAPDH and Lf vs. only lactoferrin +ve cells; Mouse peritoneum cells (In-Vivo) [2] | Fold change in Lactoferrin MFI of cells internalizing both GAPDH and Lf vs. only lactoferrin +ve cells; Neuro-2A (N2A) [2] | Fold change in Lactoferrin MFI of cells internalizing both GAPDH and Lf vs. only lactoferrin +ve cells; PMA activated THP1 [2]
1 | Lactoferrin (from UniProt P02788) | 43.8 nM | – | – | – | – | – | – | – | – | – | – | – | – | –
2 | human lactoferrin (natural protein) | – | 4.95 fold | 2.83 fold | 1.27 fold | 2.62 fold | 1.6 fold | 3.7 fold | 5.52 fold | 4.28 fold | 1.17 fold | 2.1 fold | 6.1 fold | 4.02 fold | 2.07 fold
